Test results: the DeepSol protein solubility set

assay: soluble on expression in E. coli; label from the status in PepcDB or PDB records

| Sequence | soluble on expression in E. coli |
| --- | --- |
| MAHHHHHHMGGCLISPSAEMQLEENTTSPFGHRRPIFGLFGAGEVTGGVHGGNRLGGNSLLECVVFGRIAGDRAATILQNNDTYLWGEKWSQLKLRNVMEDENGFMWLHFTFPSSFQVSGLEALQGVVLRSVSGDKSVEVYTPYTLPDDEGVVGIALSPWLTGNGVHWLRTLQPGDTVEMKAAERVERNYMNMLKAPHKVVIATSRGIAPMMQILRATMERPEKDATIHLIYIADRASSIPYREKLKALAEASPERFRCTFVLQHPQPGWSGAVNYLDEIAASVFPDPAVVIFLCGASEETRSIKSSLLDMGHDVATIATVE | not soluble |
| GPGSMENKDVATSWDYNSAEIGEFVPNSCTGTHFPNGIACAPWFQQQVTSQPHLCSSEFASSVESVGGPACRVGSEGSDYCFMNKSVCRNEEEGAEEVEGNEGESNLRWGMHIHPAALRAVQASSREVVQGLIRDKELLCSQFGTMQQNIPLAITWHDTTAPSPNQTLASTFTPLPHKKRSRDLVTLLSGISPDWEAAEEVGGASAAAHVGGLEIQRKRFRVDNPTIGSAAYEVSKAATAASPKPWIKARQKRVREEGDEDVNVNVEWGRGRDGNENSGR | soluble |
| MSLQSFENEIAFITGGASGAGFGQAQVFGRAGAKIVVADVRAEAVERAVAALKAEGIVAHGLVLDITDRQAYAGAADEVEQVFGAAPTLLFNTAGVNSFGPVEDTSYDDFDWIVGVNLGGVINGMVTFVPRMIASGRPGHIVTTSSLGGLMGSALAAPYSAAKAAVINLMESYRQGLDKHGIGVSVLCPANIKSNIAEASRLRPAQFGKSGYVENEESIASLHSIHQHGMDPVELAEHVKAGIVANQLYIIPYPEAKDGLRQHFDAIVDAVLPLEADPEGARARTEALNAWAADRARVFMEKNAAQKAEGHHHHHH | not soluble |
| MAHHHHHHMRGCLHFTRVARHKRHDKGGNAHNFAFDTLTKVYRDAVYLPQEKYRRGLMHPERSPGAPPSQAALVAPSSSSDVTNHVGNIGVMSSVATKLSDWMEQQPHHQTKHHTNGGGGTGHASATASCATPIARRSVASSSPSPAPSAAAATTDESHVDDEAIRRRLRAHLFSDKIQPGQPRTPPSTPVATASASPRRSGVQAEILSVYRSMLREVSRMQDADTRRSLSAYIRQEYDKQCDIPRKNIMKIEWRLNYGKRKLEELQAMSKHTKFTMMR | not soluble |
| MSLAQTNQAEVGEPAPNFTLQAADGDEHSLADFEGQYVVLEWLNFGCPFVGKHYGSGNMQRLQDTYTDEGVVWLSIVSSAPGKQGYYPPGEMVEQKKKHDGNMTAILMDPEGEVGKTYDATVTPHMYVISPEGELLYRGGIDDKPTTDEADIEGATNYVRMALDAAMNGEEVRPKRAEPYGCTIKYASKEGHHHHHH | soluble |
| MSDTANAAVEIGEEALEQKLEELSVQDKTTPSNSEEKMRKRRLPTAERIRLWEEEQKSKTAITTGLQGKVKWYSVLRRYGFISRNDGEKDIFVHQTAIAKSATEKFYLRTLGDDEEVLFDLVEGKNGPEAANVTGPNGDNVIGSRYRHKLLSRFRKNRKPRASVDGEESQSTDAKPQEMSADAEKKKPRKQRKNRNRKSKAQQKGAGDAADSSAVTESSESASDVASPDSKSCSKIITEEAGLSKVDRCDSALGEAGLGAQPIDAQI | soluble |
| SLFHLLGAQQNQKLKRRRFFCPVCGGELAVKLGLQKAPHFAHKQNKSCAIDIEPESAYHLEGKRQLYVWLKTQRASPILEPYIRTINQRPDVMARIKEHMLAVEYQCATIAPDVFQKRTEGFKQEGIIPQWIMGYSRLKRTASSFYQLSTFHWQFINASPYRELICYCPERRSFLRLSHIIPFYTNHSYSSVQTIPIHRAGAGDLFFTEPKPSIQYSGWTKAIHRFRHKPHRFNSKETNRLRLLFYEKRQTPFSFLPTEVFVPVRKGAVFKSPVFVWQGFLYLFMTDLGGKRAPIRFSAVLQQCKLHIHNKNIALRSECSEECLSEAVKQYIDFLCKKGFLRETQKEVYVLNQPAGGIHSMQDLIERDRSCFIE | soluble |
| MAETHSLGTKILIKIIRLYQIMISPFIGARCRFVPTCSCYGIEALKTHGLLKGGWLTLKRVLKCHPLNAGGFDPVPPKTNNNDEKK | not soluble |
| MGSDKIHHHHHHMSKLNLVHLNGLRAVEAVGRLGSLQAAASELGVSIGAISQQVIKAEQQLQLQLFERTSRGMVPTDVAEPVLDRLSAGFRHLSGAVALALKSDDTVLTISVAPVFAARWLVHRIGAFSERFPTIRLRMEASDRLIDPSSSDVDLCIRVGRGDWPGVRAELLLEQKVFPVCTPAMAKRLQSPADLLELPIVEDGRAMFSWDVWLAAAGLPGRSVCTRHVFSEASLCLDAALAGQGVLLAWQTIASQQLQQGQLVAPFGPAVPTGLAHYFVSPEGARRNDKVDAFKRWLRDELHEDMTRLAKAIPFLGGPFLKGECG | not soluble |
| MDNQISVPPALTGNYAFFFDLDGTLADIQPHPDQVVIPDSTLQALNALAQQQGGAVALISGRSMAELDALTHPWRLPLAGVHGAERRDINGKTYIVSLPTALRDEIAAELTSALEALPGCELESKEMAFALHYRQAPQQQSAVLELAQRIVQRYPLLALQLGKCVVEIKPRGVNKGEAITAFMQEAPFAGREPVFVGDDLTDEAGFSVVNQLQGMSVKVGAGETQAHWRLADAAAVRTWLQHLAYDAQTERRDDHESFSRSL | not soluble |
| MVGIQVQEVMTDKYAKIDISAPLSEAIGIIEKEDPDLILVFDDNVYKGVLTQDLIIRSHLKWDPTKAKVRDIYKPAPVVKPTDDLSHAAKLLLETDLRSLPVGENKAEIIGVISDIALLERVVAEEFGKKKVEEFMTKDVITLTPDDTVAKALAVMRDHGISRIPIVNEEGKLEGLVTLHDLILRFIKPRFKAQTGELVGEKIPPFSMKLREAMIRGVITILPTATVREAVATMKDNDIDGLVVVDEGNKVVGILTVKDLLLPISRMVEKEAKFYLQLGGDASALSDFTRERIINDIKKFVDGYSDLLGNEGIIYLYIRRFNEKFRGVHLYQARMRIVTDKGVFIARGETWGAIQAVHDAIRAIERQLLQKAELERDIRYAKRFIEKLELWR | soluble |
| MRYPEHADPVITLTAGPVNAYPEVLRGLGRTVLYDYDPAFQLLYEKVVDKAQKAMRLSNKPVILHGEPVLGLEAAAASLISPDDVVLNLASGVYGKGFGYWAKRYSPHLLEIEVPYNEAIDPQAVADMLKAHPEITVVSVCHHDTPSGTINPIDAIGALVSAHGAYLIVDAVSSFGGMKTHPEDCKADIYVTGPNKCLGAPPGLTMMGVSERAWAKMKANPLAPRASMLSIVDWENAWSRDKPFPFTPSVSEINGLDVALDLYLNEGPEAVWARHALTAKAMRAGVTAMGLSVWAASDSIASPTTTAVRTPDGVDEKALRQAARARYGVVFSSGRGETLGKLTRIGHMGPTAQPIYAIAALTALGGAMNAAGRKLAIGKGIEAALAVIDADA | soluble |
| SLRECELYVQKHNIQALLKDSIVQLCTARPERPMAFLREYFEKLEKEEAK | soluble |
| MSLFTFKKGLHLPYNKEFTKDKSIEIFKPKKELIFPLSQHIGAPCEPIVEVGQKVLVNEKIADSSAFVSSPIHSSVSGTIKDIREIQSINGSNTQAIIIENDSKYEKYPKENLKYSSKLSLKDVVKLVKDYGIVGLGGATFPCHVKLNVKEDKEIKYIIINAAECEPYLTCDHRVMLEYTEEIIGGLRILLELFPKALIYIGIEDNKLNAIDKFKSILGEDNKIKVMPLKSKYPQGSEKHLIYALTKLQVPSGKLPLDIGCIAFNVSTIYQLYASLINGLPLTERIITVTGDSIRSPKNLRVKIGTQVKDIIEFCGGFINKPNKIILGGPMMGTSVNSLDLPITKGTSGILCLSKVDTSPNSHCIRCGKCLNSCPMNLIPQKLNELALKDKFDEFEFLGGMDCLECGCCTFSCPAKISIVNNIRNAKKSLRNKSKNLEHHHHHH | soluble |
| MNPQRGILFACLLVVVTNRGATAQHARPPVGVTGDVTGARIDPPSDKCENPSVNIATTEAPKIVTTAEPAANSTKPAQPNSATGPVVLLTIVAVTMN | not soluble |
| MGSDKIHHHHHHATVTDSASTDIGIGFSGHGPGTTPGPLDIQWAPIGLDFSNSNMVNTTAVQAFPETTGTNKYVVVSEKRSNEPTREWSLTAQLSDLTNAGGSETLTGAGLKFDAAVKGYTGTNTPESPGSIVDKGARTATVNASSQSVTAGAAAVPVMKDAGTGGASFLGSTAMEMSNVKLEVPANAAKINQQYSGTLTWSLNDTI | not soluble |
| VNPKQPDLGVHVHLVRNVCTVSLDSSGASLDRRGYRTEAGEAPLRETLAAALVEMTGWDGTVPLLDPMCGSGTILVEAALKALNRAPGLIRERFGFQHWPSFDSSLWLRLVTEARQGERTSLESPLLGSDQQADLLSVAAANARRAGVEQHISFTSGDVRGLTPPPAPGIILFNPPYGRRLGDEEGLRVLYRQIGDVLKQRCAGYTAWLLTGGPELAKAVGLRASRRIVLFNGPLECRFLRFDLY | not soluble |
| MFNLRPAATLVALAAALSSLPALAEEARYNQISLRAEVNQEVQRDLMLVTLYTEAQDSDPARLAAQITETLNKALGQARQVKDVKIRQGSRNSYPVYDDKGQKITGWRERAELRLESADFAVLSKLTGELLTDLKMGGMDFSISPSTRKTSEDALLKDAVTAFKARAQLVTEALGGKGYKLVNLNLNTSGYPQPYLRAPVMMMAKSSRDESAPTPDVEAGTSQVSVAADGVIEVAIPLEHHHHHH | soluble |
| GPGSMQEERERAERSKLLREEHDFWVEFRDRERAERLKYMTEQEIVELLQREADEATRESNRADQLHQRAMEDALRRRHITADVQRGGEDTVLARRKGEVQVDGIRLAAERETSVMVGAMTVAERTRRAGVERQQREEDLTAKCQQLMTELEEARASATRAQRYQKRAEDDLTREQENTRKEQSDAAACKETNDKLLKELAEVRQQLTASEAERKKAEAAKVQAAREVAQKEKELTCLRKRDDELAAQQASQKAAAEDEKQRAFTFQEELKTYRDALEKEQAARNRAETELAALREQAKTLEAKVAAASAPDPKQVADNMRKLKAVADDARKAQADLVKERQARESAEAAAVEARDALAKEQAVREKVEKEAQRALAASSVSVLHVQKAESDRKKLAEAEKKLEEMRRARNRDEVEKAALKREMEKVKRDLEGEASARAQFEQLASQAVSADDRVPQREVDQLRKALQISQEQCNAARRDTVACQQNAAREIALLKAWCERLQQQHRMQQQVLQSDEEFTPRTATPTPHCRTPRSVRKRIPQDLVADQRQAEEKAASDQRIRELEAHVTRLQVDLGRSKDQERRAIAGAEQARKALEASTATSMPDSGKASPGPSERGIAKEQEAKERAMVQRLNALERECAEAQKKYDDLVVAHRQSEAARCEAELQVAAQRAQIEQRQREEPQSYTSALGNYETSRLEPISATAGESTSALEERIKELERHLAEERAARQAAERRAEESQKLCAAPGTDAMSAAKRAEANVSSSGAGAKGKPQKVKSACC | not soluble |
| MSLNSNTEKRIALISVHGDPAIEIGKEEAGGQNVYVREVGKALAQLGWQVDMFSRKVSPEQELIVHHSPLCRTIRLTAGPEEFVPRDNGFKYLPEFVQQLLRFQKENNVNYPLVHTNYWLSSWVGMQLKAIQGSKQVHTYHSLGAVKYKSIDTIPLVATKRLSVEKQVLETAERIVATSPQEQQHMRSLVSTKGYIDIVPCGTDIHRFGSIARQAARAELGIDQEAKVVLYVGRFDQRKGIETLVRAMNESQLRDTNKLKLIIGGGSTPGNSDGRERDRIEAIVQELGMTEMTSFPGRLSQDVLPAYYAAADVCVVPSHYEPFGLVAIEAMASGTPVVASDVGGLQFTVVSEKTGLLVPPKDIAAFNIAIDRILMNPQWRDELGLAARKHVTHKFGWEGVASQLDGIYTQLLTQQVKEPALVTKEGHHHHHH | soluble |
| YPFYAQYNYDSPREATGKIVCANCHLAKKTVEIEVPQAVLPDTVFKAVVKVPYDLDIQQVQADGSPSGLNVGAVLMLPEGFKLAPPERVDEELMEEVGDFYYLVTPYSETDENILLAGPLPGEDYQEMIFPILSPNPATDAGVYFGKYSIHLGGNRGRGQVYPTGELSNNNAFSASIAGTIAAIEDNGFGFDVTIQPEDGDAVVTSILPGPELIVAVGDTVEAGQLLTTNPNVGGFGQMDSEIVLQSSS | soluble |
